This note sets out measurements from IntAct's records for PubMed 19019158.

B1: TrfB transcriptional repressor protein (Escherichia coli), P03052 (parent)
chain: MKKRLTESQFQEAIQGLEVGQQTIEIARGVLVDGKPQATFATSLGLTRGAVSQAVHRVWAAFEDKNLPEGYARVTAVLPEHQAYIVRKWEADAKKKQETKR

This assay covers variants of B1. Particulars: with korb2_ecolx korB.
For Y84A, the “effect of a mutation on the interaction” value is on record as “disrupting interaction strength”.
Regarding P68A, the “effect of a mutation on the interaction” value was “decreasing interaction strength”.
Then V74A, with “disrupting interaction strength”; and L78A, with “disrupting interaction strength”.
With Q82A, the “effect of a mutation on the interaction” value is given as “decreasing interaction strength”.
